Laboratory results as given in patent publication US20030144481A1.

Legend:
[1] = molecular target: integrin β1 subunit on HUVEC cells (human) (UniProt P05556); assay: HUVEC adhesion to collagen Type IV-coated plates; 10 µg/ml antibody
[2] = molecular target: integrin β1 subunit on HUVEC cells (human) (UniProt P05556); assay: HUVEC attachment to plates coated with E. coli Tumstatin-45-132; 10 µg/ml antibody
[3] = molecular target: integrin β1 subunit on HUVEC cells (human) (UniProt P05556); assay: HUVEC attachment to Tumstatin-coated plates; 10 µg/ml antibody; against control IgG
[4] = molecular target: integrin β1 subunit on HUVEC cells (human) (UniProt P05556); assay: cell binding to type IV collagen-coated plates; 10 µg/ml antibody; against control IgG
[5] = molecular target: integrin β1 subunit on HUVEC cells (human) (UniProt P05556); assay: HUVEC adhesion to Arresten-coated plates; 10 µg/ml antibody; blocked pair Arresten / integrin β1
[6] = molecular target: αvβ3 integrin on C-PAE cells (bovine) (UniProt P80746); assay: C-PAE attachment to Tum-1-coated plates
[7] = molecular target: αvβ3 integrin on C-PAE cells (bovine) (UniProt P80746); assay: C-PAE attachment to Tum-2-coated plates
[8] = molecular target: αvβ3 integrin on C-PAE cells (bovine) (UniProt P80746); assay: C-PAE attachment to Tum-4-coated plates
[9] = molecular target: αvβ3 integrin on HUVEC cells (human) (UniProt P06756); assay: cell binding to vitronectin-coated plates; 10 µg/ml antibody
[10] = molecular target: αvβ3 integrin on HUVEC cells (human) (UniProt P06756); assay: HUVEC adhesion to collagen Type IV-coated plates; 10 µg/ml antibody
[11] = molecular target: αvβ3 integrin on HUVEC cells (human) (UniProt P06756); assay: HUVEC attachment to plates coated with E. coli Tumstatin-45-132; 10 µg/ml antibody
[12] = molecular target: αvβ3 integrin on HUVEC cells (human) (UniProt P06756); assay: HUVEC attachment to Tumstatin-coated plates; 10 µg/ml antibody; against control IgG
[13] = molecular target: αvβ3 integrin on HUVEC cells (human) (UniProt P06756); assay: HUVEC attachment to Tumstatin-coated plates; anti-αvβ3 and anti-β1 antibodies used together
[14] = molecular target: human αvβ3 protein (CHEMICON International), soluble (human) (UniProt P06756); assay: cell-based or functional assay

Sequence of αvβ3 integrin on C-PAE cells (bovine) (P80746 31-1048): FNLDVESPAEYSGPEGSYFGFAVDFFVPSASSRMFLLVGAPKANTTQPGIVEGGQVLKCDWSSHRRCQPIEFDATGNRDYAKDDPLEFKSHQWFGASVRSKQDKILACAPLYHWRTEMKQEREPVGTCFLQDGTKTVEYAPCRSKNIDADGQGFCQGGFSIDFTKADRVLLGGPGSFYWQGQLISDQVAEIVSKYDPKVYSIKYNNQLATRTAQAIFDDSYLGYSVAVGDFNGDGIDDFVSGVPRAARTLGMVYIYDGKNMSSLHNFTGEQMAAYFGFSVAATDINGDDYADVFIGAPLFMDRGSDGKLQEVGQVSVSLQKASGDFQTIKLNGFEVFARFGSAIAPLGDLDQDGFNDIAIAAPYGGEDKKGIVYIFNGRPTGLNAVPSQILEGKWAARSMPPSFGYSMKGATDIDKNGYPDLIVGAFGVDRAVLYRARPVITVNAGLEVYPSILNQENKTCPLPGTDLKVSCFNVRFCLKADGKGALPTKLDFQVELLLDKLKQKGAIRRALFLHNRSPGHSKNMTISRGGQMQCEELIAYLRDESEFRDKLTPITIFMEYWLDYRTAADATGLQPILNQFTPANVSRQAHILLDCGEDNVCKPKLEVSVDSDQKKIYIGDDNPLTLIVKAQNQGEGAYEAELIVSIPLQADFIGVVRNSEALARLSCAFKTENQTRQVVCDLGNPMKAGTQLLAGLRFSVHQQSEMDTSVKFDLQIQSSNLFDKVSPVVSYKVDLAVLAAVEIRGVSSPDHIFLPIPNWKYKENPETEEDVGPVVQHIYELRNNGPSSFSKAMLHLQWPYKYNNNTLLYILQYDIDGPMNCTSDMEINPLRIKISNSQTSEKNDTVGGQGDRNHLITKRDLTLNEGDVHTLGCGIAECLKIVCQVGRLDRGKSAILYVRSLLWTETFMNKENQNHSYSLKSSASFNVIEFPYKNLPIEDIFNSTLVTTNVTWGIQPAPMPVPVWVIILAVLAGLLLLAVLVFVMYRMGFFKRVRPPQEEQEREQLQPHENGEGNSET
Sequence of integrin β1 subunit on HUVEC cells (human) (P05556 21-798): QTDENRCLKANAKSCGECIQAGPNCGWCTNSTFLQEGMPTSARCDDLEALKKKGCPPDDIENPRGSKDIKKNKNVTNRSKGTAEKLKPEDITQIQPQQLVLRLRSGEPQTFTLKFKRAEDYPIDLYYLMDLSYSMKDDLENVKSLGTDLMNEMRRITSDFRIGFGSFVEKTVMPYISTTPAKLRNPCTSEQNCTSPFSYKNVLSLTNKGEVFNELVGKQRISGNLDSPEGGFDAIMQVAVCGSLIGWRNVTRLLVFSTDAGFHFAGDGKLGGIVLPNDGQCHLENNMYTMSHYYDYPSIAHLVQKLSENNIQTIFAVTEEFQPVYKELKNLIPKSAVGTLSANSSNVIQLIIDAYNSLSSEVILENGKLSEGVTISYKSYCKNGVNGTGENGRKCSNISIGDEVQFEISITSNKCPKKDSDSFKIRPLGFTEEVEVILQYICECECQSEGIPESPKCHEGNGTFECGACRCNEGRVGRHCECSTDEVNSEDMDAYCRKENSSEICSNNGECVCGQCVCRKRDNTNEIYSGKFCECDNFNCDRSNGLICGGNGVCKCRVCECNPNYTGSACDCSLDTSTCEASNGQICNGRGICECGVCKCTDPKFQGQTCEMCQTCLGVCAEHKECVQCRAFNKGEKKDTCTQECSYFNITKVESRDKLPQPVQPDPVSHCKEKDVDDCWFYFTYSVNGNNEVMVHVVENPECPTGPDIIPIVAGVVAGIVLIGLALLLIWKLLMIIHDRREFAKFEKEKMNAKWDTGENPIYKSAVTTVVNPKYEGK
Sequence of αvβ3 integrin on HUVEC cells (human) (P06756 31-1048, chain 1 of 2): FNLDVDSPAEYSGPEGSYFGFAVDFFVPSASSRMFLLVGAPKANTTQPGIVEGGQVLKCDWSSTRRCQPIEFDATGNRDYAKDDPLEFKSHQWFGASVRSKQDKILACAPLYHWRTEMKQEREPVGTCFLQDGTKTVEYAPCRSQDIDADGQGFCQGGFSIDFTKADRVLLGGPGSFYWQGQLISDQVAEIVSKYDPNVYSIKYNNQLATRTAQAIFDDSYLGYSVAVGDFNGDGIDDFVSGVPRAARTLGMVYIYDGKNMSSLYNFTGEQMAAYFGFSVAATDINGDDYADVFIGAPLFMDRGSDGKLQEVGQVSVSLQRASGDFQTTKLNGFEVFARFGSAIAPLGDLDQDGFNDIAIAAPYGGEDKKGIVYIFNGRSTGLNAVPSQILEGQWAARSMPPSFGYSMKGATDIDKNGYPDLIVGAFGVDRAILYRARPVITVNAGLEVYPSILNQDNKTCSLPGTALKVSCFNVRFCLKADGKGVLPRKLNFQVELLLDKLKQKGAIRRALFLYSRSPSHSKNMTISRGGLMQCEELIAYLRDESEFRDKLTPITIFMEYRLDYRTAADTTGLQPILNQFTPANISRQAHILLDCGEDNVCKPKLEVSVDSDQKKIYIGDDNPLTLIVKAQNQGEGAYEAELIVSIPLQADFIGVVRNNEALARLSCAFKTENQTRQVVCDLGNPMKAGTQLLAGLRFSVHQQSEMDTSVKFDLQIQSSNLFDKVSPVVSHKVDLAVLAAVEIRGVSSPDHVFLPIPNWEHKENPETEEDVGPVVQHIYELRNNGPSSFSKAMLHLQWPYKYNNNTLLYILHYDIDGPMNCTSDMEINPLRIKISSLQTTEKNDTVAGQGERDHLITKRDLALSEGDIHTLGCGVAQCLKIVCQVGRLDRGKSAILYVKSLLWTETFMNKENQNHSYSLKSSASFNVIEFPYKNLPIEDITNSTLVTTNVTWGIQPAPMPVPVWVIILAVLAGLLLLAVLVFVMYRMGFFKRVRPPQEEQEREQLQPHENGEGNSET
Sequence of αvβ3 integrin on HUVEC cells (human) (P05106 27-788, chain 2 of 2, further chain): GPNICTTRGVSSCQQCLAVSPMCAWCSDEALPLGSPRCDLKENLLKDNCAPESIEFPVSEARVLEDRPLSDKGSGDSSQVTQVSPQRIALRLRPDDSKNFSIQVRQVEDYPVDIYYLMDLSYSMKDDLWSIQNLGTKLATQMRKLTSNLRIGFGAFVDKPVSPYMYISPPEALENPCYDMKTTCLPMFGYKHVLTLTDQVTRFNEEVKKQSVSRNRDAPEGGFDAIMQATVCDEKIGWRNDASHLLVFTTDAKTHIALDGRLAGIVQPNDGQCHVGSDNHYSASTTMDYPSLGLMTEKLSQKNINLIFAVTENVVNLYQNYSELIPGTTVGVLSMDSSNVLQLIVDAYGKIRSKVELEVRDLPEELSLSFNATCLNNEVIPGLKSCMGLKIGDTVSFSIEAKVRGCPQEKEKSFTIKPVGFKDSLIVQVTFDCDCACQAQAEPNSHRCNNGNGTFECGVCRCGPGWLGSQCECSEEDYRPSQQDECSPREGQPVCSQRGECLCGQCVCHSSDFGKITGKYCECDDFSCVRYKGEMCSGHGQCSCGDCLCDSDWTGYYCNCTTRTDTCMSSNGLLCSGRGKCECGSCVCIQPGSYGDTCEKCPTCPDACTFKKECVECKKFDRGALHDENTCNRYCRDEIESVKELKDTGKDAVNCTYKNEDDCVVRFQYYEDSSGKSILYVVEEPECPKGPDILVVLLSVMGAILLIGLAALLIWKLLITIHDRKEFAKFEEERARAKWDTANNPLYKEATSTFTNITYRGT

Question: Which results are given for “mouse monoclonal antibody to the human β1 integrin (clone P4C10, Life Technologies/Gibco BRL)”?
Answer: % inhibition of cell adhesion [1]: 40%; % inhibition of cell attachment [2]: 47.5%; % inhibition of cell attachment [3]: 54%; % inhibition of cell binding [4]: 53%; % inhibition of cell adhesion [5]: 70%

Question: How did the % inhibition of cell attachment [6] turn out when “monoclonal antibody to αvβ3 integrin (clone LM609, CHEMICON International)” was run?
Answer: 55.9%

Question: And the % inhibition of cell attachment [7]?
Answer: 69.8%

Question: And the % inhibition of cell attachment [8]?
Answer: 62.6%

Question: And the % inhibition of cell binding [9]?
Answer: 61%

Question: And the % inhibition of cell adhesion [10]?
Answer: 15%

Question: What about the % inhibition of cell attachment [11] of the same substance?
Answer: 47.1%

Question: And the % inhibition of cell attachment [12]?
Answer: 80%

Question: What about the % inhibition of cell attachment [13] of the same substance?
Answer: 91%

Question: With “Tum-4 (from UniProt Q01955 1607-1670) (ligand)” as the substance, how does the recovery of the anti-proliferative effect on WM-164 melanoma cells (methylene blue) [14] read?
Answer: 76.7%

Question: With “Tum-2 (from UniProt Q01955 1427-1558) (ligand)” as the substance, how does the recovery of the anti-proliferative effect on C-PAE cells (methylene blue) [14] read?
Answer: 74.1%
